{
  "source": "paper PMC4288179",
  "about": "“Synergic interplay of the La motif, RRM1 and the interdomain linker of LARP6 in the recognition of collagen mRNA expands the RNA binding repertoire of the La module”",
  "experiment_in_all_cases": "ITC; ITC: 20 mM Tris pH 7.25, 100 mM KCl, 5 mM MgCl2, 1 mM DTT, 298 K; protein titrated into RNA",
  "key": {"HsLARP6 RRM1 (180-295)": {"biological_target": "T1, HsLARP6 RRM1 (180-295) (Homo sapiens, UniProt Q9BRS8 180-295)", "T1 sequence": "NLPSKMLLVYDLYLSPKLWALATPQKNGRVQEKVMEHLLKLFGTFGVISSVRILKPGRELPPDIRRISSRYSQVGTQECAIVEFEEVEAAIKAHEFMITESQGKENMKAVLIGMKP", "conditions": "protein: recombinant; tags: N-terminal His6 (TEV-cleavable); stem-loop with internal bulge"}, "HsLARP6(70-300) D112A": {"biological_target": "T2, HsLARP6(70-300) D112A (Homo sapiens, UniProt Q9BRS8 70-300, D112A)", "T2 sequence": "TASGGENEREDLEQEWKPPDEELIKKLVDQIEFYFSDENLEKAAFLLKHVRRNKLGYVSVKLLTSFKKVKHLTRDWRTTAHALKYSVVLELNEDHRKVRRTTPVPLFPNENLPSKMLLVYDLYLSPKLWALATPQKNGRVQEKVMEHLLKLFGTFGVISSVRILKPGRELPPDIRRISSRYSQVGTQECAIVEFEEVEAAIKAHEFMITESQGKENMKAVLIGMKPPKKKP", "conditions": "protein: recombinant; tags: N-terminal His6 (TEV-cleavable); stem-loop with internal bulge"}, "HsLARP6(70-300) E262A": {"biological_target": "T3, HsLARP6(70-300) E262A (Homo sapiens, UniProt Q9BRS8 70-300, E262A)", "T3 sequence": "T2 sequence with A43D, E193A", "conditions": "protein: recombinant; tags: N-terminal His6 (TEV-cleavable); stem-loop with internal bulge"}, "HsLARP6(70-300) N180R": {"biological_target": "T4, HsLARP6(70-300) N180R (Homo sapiens, UniProt Q9BRS8 70-300, N180R)", "T4 sequence": "T2 sequence with A43D, N111R", "conditions": "protein: recombinant; tags: N-terminal His6 (TEV-cleavable); stem-loop with internal bulge"}, "[1]": {"biological_target": "T5, HsLARP6 La module (70-300) (Homo sapiens, UniProt Q9BRS8 70-300)", "T5 sequence": "T2 sequence with A43D", "conditions": "protein: recombinant; tags: N-terminal His6, TEV-cleaved for initial ITC; stem-loop with internal bulge"}, "[2]": {"biological_target": "T6, HsLARP6(70-300) R244E/R245E/R249E (Homo sapiens, UniProt Q9BRS8 70-300, R244E;R245E;R249E)", "T6 sequence": "T2 sequence with A43D, R175E, R176E, R180E", "conditions": "protein: recombinant; tags: N-terminal His6 (TEV-cleavable); stem-loop with internal bulge"}},
  "note": "Substitutions are numbered along the chain they refer to.",
  "data": [
    {"binder": "CCACAAAGAGUCUACAUGUCUAGGGUCUAGACAUGUUCAGCUUUGUGG (structured_RNA)", "note": "[48 nt RNA (collagen alpha1(I) 5' UTR SL)]", "values": [
      {"measurement": "binding result", "setting": "HsLARP6 RRM1 (180-295)", "value": "no binding"},
      {"measurement": "Kd", "setting": "HsLARP6(70-300) D112A", "value": 172, "unit": "nM"},
      {"measurement": "Kd", "setting": "HsLARP6(70-300) E262A", "value": 5.3, "unit": "nM"},
      {"measurement": "Kd", "setting": "HsLARP6(70-300) N180R", "value": 32, "unit": "nM"},
      {"measurement": "Kd", "setting": "[1]", "value": 48, "unit": "nM"},
      {"measurement": "Kd", "setting": "[2]", "value": 27, "unit": "nM"}
    ]}
  ]
}
